According to publication doi:10.1101/2024.11.22.622898:

Molecular target: Retromer (recombinant trimer) (human) (UniProt Q96QK1)
Test: ITC

| Kd | Substance |
| --- | --- |
| 15.4 µM | DENND4C peptide 1189-1206 |
| 6.3 µM | recombinant full-length human TBC1D13 (from UniProt Q9NVG8 1-400) (natural protein) |
